Target: T1, human PD-1-His (human, UniProt Q15116 25-167, limits assumed)
T1 construct: Antigen of the Octet assays; not shown: His tag
Assay: Octet

T1 sequence (Q15116 25-167 limits assumed): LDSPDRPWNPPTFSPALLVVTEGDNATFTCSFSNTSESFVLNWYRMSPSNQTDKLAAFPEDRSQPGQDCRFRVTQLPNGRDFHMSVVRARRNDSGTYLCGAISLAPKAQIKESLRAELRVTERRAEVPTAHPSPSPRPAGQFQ

Binder | Kd | koff | kon | binding result
H1.148_L1 (antibody, V domains shown, also called VH-V111W; Kabat 99) VH: EVQLVESGGGLVQPGGSLRLSCAASGFTFSSFGMHWVRQAPGKGLEWVSYISSGSSIIYYADSVKGRFTISRDNAKNSLYLQMNSLRAEDTAVYYCARGGRLWWSPDYWGQGTLVTVSS VL: DIVMTQSPDSLAVSLGERATINCKSSQSLLNSGNQKNYLTWYQQKPGQPPKLLIYWASTRESGVPDRFTGSGSGTDFTLTISSLQAEDVAVYYCQNDYSYPFTFGSGTKLEIKR | 77.5 nM | 0.0112 s⁻¹ | 144000 M⁻¹ s⁻¹ | 
H1.161_L1 (antibody, V domains shown, also called VH-S113A; Kabat 100a) VH: EVQLVESGGGLVQPGGSLRLSCAASGFTFSSFGMHWVRQAPGKGLEWVSYISSGSSIIYYADSVKGRFTISRDNAKNSLYLQMNSLRAEDTAVYYCARGGRLVWAPDYWGQGTLVTVSS VL: DIVMTQSPDSLAVSLGERATINCKSSQSLLNSGNQKNYLTWYQQKPGQPPKLLIYWASTRESGVPDRFTGSGSGTDFTLTISSLQAEDVAVYYCQNDYSYPFTFGSGTKLEIKR | 47.5 nM | 0.00755 s⁻¹ | 159000 M⁻¹ s⁻¹ | 
H1.164_L1 (antibody, V domains shown, also called VH-S113V; Kabat 100a) VH: EVQLVESGGGLVQPGGSLRLSCAASGFTFSSFGMHWVRQAPGKGLEWVSYISSGSSIIYYADSVKGRFTISRDNAKNSLYLQMNSLRAEDTAVYYCARGGRLVWVPDYWGQGTLVTVSS VL: DIVMTQSPDSLAVSLGERATINCKSSQSLLNSGNQKNYLTWYQQKPGQPPKLLIYWASTRESGVPDRFTGSGSGTDFTLTISSLQAEDVAVYYCQNDYSYPFTFGSGTKLEIKR | 280 nM | 0.0166 s⁻¹ | 59400 M⁻¹ s⁻¹ | 
H1.160_L1 (antibody, V domains shown, also called VH-S113T; Kabat 100a) VH: EVQLVESGGGLVQPGGSLRLSCAASGFTFSSFGMHWVRQAPGKGLEWVSYISSGSSIIYYADSVKGRFTISRDNAKNSLYLQMNSLRAEDTAVYYCARGGRLVWTPDYWGQGTLVTVSS VL: DIVMTQSPDSLAVSLGERATINCKSSQSLLNSGNQKNYLTWYQQKPGQPPKLLIYWASTRESGVPDRFTGSGSGTDFTLTISSLQAEDVAVYYCQNDYSYPFTFGSGTKLEIKR | 90.7 nM | 0.00764 s⁻¹ | 84300 M⁻¹ s⁻¹ | 
H1.166_L1 (antibody, V domains shown, also called VH-S113D; Kabat 100a) VH: EVQLVESGGGLVQPGGSLRLSCAASGFTFSSFGMHWVRQAPGKGLEWVSYISSGSSIIYYADSVKGRFTISRDNAKNSLYLQMNSLRAEDTAVYYCARGGRLVWDPDYWGQGTLVTVSS VL: DIVMTQSPDSLAVSLGERATINCKSSQSLLNSGNQKNYLTWYQQKPGQPPKLLIYWASTRESGVPDRFTGSGSGTDFTLTISSLQAEDVAVYYCQNDYSYPFTFGSGTKLEIKR | 189 nM | 0.0457 s⁻¹ | 242000 M⁻¹ s⁻¹ | 
H1.163_L1 (antibody, V domains shown, also called VH-S113G; Kabat 100a) VH: EVQLVESGGGLVQPGGSLRLSCAASGFTFSSFGMHWVRQAPGKGLEWVSYISSGSSIIYYADSVKGRFTISRDNAKNSLYLQMNSLRAEDTAVYYCARGGRLVWGPDYWGQGTLVTVSS VL: DIVMTQSPDSLAVSLGERATINCKSSQSLLNSGNQKNYLTWYQQKPGQPPKLLIYWASTRESGVPDRFTGSGSGTDFTLTISSLQAEDVAVYYCQNDYSYPFTFGSGTKLEIKR | 92 nM | 0.0113 s⁻¹ | 123000 M⁻¹ s⁻¹ | 
H1_L1.2 (antibody, V domains shown, also called VL-N31E; Kabat 27d) VH: EVQLVESGGGLVQPGGSLRLSCAASGFTFSSFGMHWVRQAPGKGLEWVSYISSGSSIIYYADSVKGRFTISRDNAKNSLYLQMNSLRAEDTAVYYCARGGRLVWSPDYWGQGTLVTVSS VL: DIVMTQSPDSLAVSLGERATINCKSSQSLLESGNQKNYLTWYQQKPGQPPKLLIYWASTRESGVPDRFTGSGSGTDFTLTISSLQAEDVAVYYCQNDYSYPFTFGSGTKLEIKR | 152 nM | 0.0228 s⁻¹ | 150000 M⁻¹ s⁻¹ | 
H1.150_L1 (antibody, V domains shown, also called VH-V111K; Kabat 99) VH: EVQLVESGGGLVQPGGSLRLSCAASGFTFSSFGMHWVRQAPGKGLEWVSYISSGSSIIYYADSVKGRFTISRDNAKNSLYLQMNSLRAEDTAVYYCARGGRLKWSPDYWGQGTLVTVSS VL: DIVMTQSPDSLAVSLGERATINCKSSQSLLNSGNQKNYLTWYQQKPGQPPKLLIYWASTRESGVPDRFTGSGSGTDFTLTISSLQAEDVAVYYCQNDYSYPFTFGSGTKLEIKR | 60 nM | 0.00524 s⁻¹ | 87200 M⁻¹ s⁻¹ | 
H1.149_L1 (antibody, V domains shown, also called VH-V111D; Kabat 99) VH: EVQLVESGGGLVQPGGSLRLSCAASGFTFSSFGMHWVRQAPGKGLEWVSYISSGSSIIYYADSVKGRFTISRDNAKNSLYLQMNSLRAEDTAVYYCARGGRLDWSPDYWGQGTLVTVSS VL: DIVMTQSPDSLAVSLGERATINCKSSQSLLNSGNQKNYLTWYQQKPGQPPKLLIYWASTRESGVPDRFTGSGSGTDFTLTISSLQAEDVAVYYCQNDYSYPFTFGSGTKLEIKR | 116 nM | 0.0116 s⁻¹ | 99700 M⁻¹ s⁻¹ | 

The next lines start with the values.

Kd | koff | kon | binding result | Binder
 |  |  | no binding | H1.158_L1 (antibody, V domains shown, also called VH-W112E; Kabat 100; copies: 2 + 2) VH: EVQLVESGGGLVQPGGSLRLSCAASGFTFSSFGMHWVRQAPGKGLEWVSYISSGSSIIYYADSVKGRFTISRDNAKNSLYLQMNSLRAEDTAVYYCARGGRLVESPDYWGQGTLVTVSS VL: DIVMTQSPDSLAVSLGERATINCKSSQSLLNSGNQKNYLTWYQQKPGQPPKLLIYWASTRESGVPDRFTGSGSGTDFTLTISSLQAEDVAVYYCQNDYSYPFTFGSGTKLEIKR
 |  |  | no binding | H1.157_L1 (antibody, V domains shown, also called VH-W112S; Kabat 100; copies: 2 + 2) VH: EVQLVESGGGLVQPGGSLRLSCAASGFTFSSFGMHWVRQAPGKGLEWVSYISSGSSIIYYADSVKGRFTISRDNAKNSLYLQMNSLRAEDTAVYYCARGGRLVSSPDYWGQGTLVTVSS VL: DIVMTQSPDSLAVSLGERATINCKSSQSLLNSGNQKNYLTWYQQKPGQPPKLLIYWASTRESGVPDRFTGSGSGTDFTLTISSLQAEDVAVYYCQNDYSYPFTFGSGTKLEIKR
 |  |  | no binding | H1.153_L1 (antibody, V domains shown, also called VH-W112Y; Kabat 100; copies: 2 + 2) VH: EVQLVESGGGLVQPGGSLRLSCAASGFTFSSFGMHWVRQAPGKGLEWVSYISSGSSIIYYADSVKGRFTISRDNAKNSLYLQMNSLRAEDTAVYYCARGGRLVYSPDYWGQGTLVTVSS VL: DIVMTQSPDSLAVSLGERATINCKSSQSLLNSGNQKNYLTWYQQKPGQPPKLLIYWASTRESGVPDRFTGSGSGTDFTLTISSLQAEDVAVYYCQNDYSYPFTFGSGTKLEIKR
 |  |  | no binding | H1.156_L1 (antibody, V domains shown, also called VH-W112Q; Kabat 100; copies: 2 + 2) VH: EVQLVESGGGLVQPGGSLRLSCAASGFTFSSFGMHWVRQAPGKGLEWVSYISSGSSIIYYADSVKGRFTISRDNAKNSLYLQMNSLRAEDTAVYYCARGGRLVQSPDYWGQGTLVTVSS VL: DIVMTQSPDSLAVSLGERATINCKSSQSLLNSGNQKNYLTWYQQKPGQPPKLLIYWASTRESGVPDRFTGSGSGTDFTLTISSLQAEDVAVYYCQNDYSYPFTFGSGTKLEIKR
 |  |  | no binding | H1.155_L1 (antibody, V domains shown, also called VH-W112H; Kabat 100; copies: 2 + 2) VH: EVQLVESGGGLVQPGGSLRLSCAASGFTFSSFGMHWVRQAPGKGLEWVSYISSGSSIIYYADSVKGRFTISRDNAKNSLYLQMNSLRAEDTAVYYCARGGRLVHSPDYWGQGTLVTVSS VL: DIVMTQSPDSLAVSLGERATINCKSSQSLLNSGNQKNYLTWYQQKPGQPPKLLIYWASTRESGVPDRFTGSGSGTDFTLTISSLQAEDVAVYYCQNDYSYPFTFGSGTKLEIKR
